Assay results from US20220010021A1 (Sanofi, published 2022).

Tests used:
[1] = biological target: cell surface receptor composed of the tyrosine kinase receptor FGFR1c and co-receptor beta-Klotho (KLB) (human, UniProt P11362 22-822; Q86Z14 1-1044); assay: cell-based or functional assay
[2] = biological target: cell surface receptor composed of FGFR1c and co-receptor beta-Klotho (KLB) (human, UniProt P11362 22-822; Q86Z14 1-1044); assay: cell-based or functional assay
Target sequence in this assay (P11362 22-822, chain 1 of 2): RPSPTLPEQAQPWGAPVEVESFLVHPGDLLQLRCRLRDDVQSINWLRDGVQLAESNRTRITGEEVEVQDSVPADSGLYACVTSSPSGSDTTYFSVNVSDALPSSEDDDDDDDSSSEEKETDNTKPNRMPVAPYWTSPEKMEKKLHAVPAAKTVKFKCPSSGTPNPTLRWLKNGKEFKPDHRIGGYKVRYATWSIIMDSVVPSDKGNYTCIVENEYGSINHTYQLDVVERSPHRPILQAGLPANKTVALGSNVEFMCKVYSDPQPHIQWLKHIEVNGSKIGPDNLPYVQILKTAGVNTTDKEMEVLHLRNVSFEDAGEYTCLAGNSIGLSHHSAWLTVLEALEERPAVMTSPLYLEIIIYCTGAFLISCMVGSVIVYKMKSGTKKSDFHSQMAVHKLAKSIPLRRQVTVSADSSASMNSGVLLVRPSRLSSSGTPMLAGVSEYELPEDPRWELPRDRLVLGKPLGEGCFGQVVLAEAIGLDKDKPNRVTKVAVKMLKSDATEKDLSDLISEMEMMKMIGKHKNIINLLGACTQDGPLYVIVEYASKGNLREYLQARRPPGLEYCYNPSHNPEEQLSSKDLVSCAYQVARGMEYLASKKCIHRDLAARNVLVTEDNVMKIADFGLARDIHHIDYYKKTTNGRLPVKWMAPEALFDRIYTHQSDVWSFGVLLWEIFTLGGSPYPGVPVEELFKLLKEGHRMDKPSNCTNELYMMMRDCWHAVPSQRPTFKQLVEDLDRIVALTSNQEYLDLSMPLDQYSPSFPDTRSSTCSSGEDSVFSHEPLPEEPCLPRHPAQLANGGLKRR
Target sequence in this assay (Q86Z14 whole entry, chain 2 of 2): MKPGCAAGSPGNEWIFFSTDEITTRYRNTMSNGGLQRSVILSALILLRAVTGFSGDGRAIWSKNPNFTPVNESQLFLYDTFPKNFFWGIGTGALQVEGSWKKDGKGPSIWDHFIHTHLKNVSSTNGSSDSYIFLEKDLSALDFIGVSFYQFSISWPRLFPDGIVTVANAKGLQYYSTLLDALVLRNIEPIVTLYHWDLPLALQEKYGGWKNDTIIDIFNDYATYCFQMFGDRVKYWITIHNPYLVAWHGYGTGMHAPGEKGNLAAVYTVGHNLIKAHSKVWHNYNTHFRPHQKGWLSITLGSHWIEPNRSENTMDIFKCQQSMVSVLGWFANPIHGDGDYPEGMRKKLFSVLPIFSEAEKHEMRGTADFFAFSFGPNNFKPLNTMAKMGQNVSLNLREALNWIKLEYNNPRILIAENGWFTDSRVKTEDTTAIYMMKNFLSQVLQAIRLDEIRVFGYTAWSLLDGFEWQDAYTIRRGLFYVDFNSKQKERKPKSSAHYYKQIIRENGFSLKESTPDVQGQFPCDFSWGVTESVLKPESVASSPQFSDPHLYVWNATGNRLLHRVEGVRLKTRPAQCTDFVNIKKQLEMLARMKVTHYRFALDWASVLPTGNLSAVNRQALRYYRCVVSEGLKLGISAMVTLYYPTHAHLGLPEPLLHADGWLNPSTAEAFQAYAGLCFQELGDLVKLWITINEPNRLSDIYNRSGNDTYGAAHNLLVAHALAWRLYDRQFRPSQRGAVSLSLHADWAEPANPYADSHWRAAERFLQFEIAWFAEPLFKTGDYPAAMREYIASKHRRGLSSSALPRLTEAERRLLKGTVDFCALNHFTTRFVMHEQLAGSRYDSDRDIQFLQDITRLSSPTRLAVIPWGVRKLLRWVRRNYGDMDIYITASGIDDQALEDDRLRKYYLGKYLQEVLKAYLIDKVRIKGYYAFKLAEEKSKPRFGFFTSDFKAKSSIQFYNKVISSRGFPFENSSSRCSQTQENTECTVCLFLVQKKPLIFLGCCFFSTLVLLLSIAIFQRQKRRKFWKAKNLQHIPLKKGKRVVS

human beta-Klotho (KLB) [3] = biological target: T1, human beta-Klotho (KLB) (human, UniProt Q86Z14 53-997); assay: BLI off-rate screen, supernatant;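 further: expression supernatants tested at 25 µg/mL, dissociation followed for 1800 s in D-PBS with 0.1% BSA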
T1 construct: Bought soluble protein; also called human KLB; ß-Klotho
T1 sequence (looked up): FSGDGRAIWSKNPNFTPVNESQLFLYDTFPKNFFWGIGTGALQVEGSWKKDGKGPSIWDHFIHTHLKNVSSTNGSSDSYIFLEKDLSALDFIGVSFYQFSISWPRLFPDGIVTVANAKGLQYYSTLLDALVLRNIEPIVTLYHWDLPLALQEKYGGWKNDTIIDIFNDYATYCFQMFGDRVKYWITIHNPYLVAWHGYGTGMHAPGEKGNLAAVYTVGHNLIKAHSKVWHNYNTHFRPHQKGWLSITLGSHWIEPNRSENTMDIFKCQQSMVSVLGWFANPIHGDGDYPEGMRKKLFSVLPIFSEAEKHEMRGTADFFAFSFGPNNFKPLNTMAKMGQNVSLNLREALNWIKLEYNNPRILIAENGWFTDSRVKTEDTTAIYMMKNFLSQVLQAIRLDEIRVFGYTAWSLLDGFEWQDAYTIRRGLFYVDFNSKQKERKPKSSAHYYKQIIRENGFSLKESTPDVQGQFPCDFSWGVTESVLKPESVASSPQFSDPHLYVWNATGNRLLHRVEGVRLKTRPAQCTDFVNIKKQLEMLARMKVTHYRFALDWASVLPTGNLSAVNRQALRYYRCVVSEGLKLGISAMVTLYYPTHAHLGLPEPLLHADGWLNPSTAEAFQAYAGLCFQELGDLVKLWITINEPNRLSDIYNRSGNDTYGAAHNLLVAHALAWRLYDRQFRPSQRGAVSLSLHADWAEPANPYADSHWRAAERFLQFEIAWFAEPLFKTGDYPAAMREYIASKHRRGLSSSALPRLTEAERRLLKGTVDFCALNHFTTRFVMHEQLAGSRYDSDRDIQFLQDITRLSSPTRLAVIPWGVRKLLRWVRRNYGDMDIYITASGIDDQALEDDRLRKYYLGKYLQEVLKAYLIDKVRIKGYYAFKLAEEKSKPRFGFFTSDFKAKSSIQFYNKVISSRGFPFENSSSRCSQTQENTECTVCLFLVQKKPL

[4] = biological target: cell surface receptor composed of FGFR1c and co-receptor beta-Klotho (KLB) (human, UniProt P11362 22-822; Q86Z14 1-1044); assay: cell-based or functional assay; remark: listed apart in the source
Target sequence in this assay (P11362 22-822, chain 1 of 2): as the sequence (P11362 22-822, chain 1 of 2) above
Target sequence in this assay (Q86Z14 whole entry, chain 2 of 2): as the sequence (Q86Z14 whole entry, chain 2 of 2) above

human beta-Klotho (KLB) [5] = biological target: T2, human beta-Klotho (KLB) (human, UniProt Q86Z14 53-997); assay: BLI off-rate screening (Octet), crude supernatant;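 further: supernatants tested at 25 µg/mL, dissociation from biosensors recorded in D-PBS with 0.1% BSA over 1800 s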
T2 construct: Bought protein; also called human KLB; β-Klotho
T2 sequence (looked up): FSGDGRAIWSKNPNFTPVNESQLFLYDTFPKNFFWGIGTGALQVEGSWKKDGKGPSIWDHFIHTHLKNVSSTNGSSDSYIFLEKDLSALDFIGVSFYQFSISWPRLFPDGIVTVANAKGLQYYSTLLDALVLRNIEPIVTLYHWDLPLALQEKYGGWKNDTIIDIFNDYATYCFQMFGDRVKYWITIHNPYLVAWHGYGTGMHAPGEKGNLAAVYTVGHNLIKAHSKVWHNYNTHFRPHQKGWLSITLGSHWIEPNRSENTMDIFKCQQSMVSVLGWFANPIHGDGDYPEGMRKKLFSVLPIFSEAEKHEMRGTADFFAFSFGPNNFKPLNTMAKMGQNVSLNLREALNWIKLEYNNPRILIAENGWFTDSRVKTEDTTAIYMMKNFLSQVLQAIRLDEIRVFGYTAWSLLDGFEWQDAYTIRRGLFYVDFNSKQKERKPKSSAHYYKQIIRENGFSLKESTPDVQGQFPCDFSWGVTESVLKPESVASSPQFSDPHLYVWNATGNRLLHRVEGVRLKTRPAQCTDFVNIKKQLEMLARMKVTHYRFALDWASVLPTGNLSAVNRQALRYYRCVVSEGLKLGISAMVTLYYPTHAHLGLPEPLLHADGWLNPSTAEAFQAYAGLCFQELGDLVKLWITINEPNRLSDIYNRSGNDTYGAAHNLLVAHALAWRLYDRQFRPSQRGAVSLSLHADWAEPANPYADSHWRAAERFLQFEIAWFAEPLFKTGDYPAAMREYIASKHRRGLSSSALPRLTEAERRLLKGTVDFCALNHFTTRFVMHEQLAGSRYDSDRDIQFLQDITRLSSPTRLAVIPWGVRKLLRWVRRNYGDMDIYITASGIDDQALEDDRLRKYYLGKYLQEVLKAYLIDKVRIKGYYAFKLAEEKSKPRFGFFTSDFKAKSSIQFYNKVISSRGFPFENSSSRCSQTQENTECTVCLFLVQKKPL
Wherever Mean E max, Luciferase reporter gene assay is given: reference of the scale not given here.

cell surface receptor composed of the tyrosine kinase receptor FGFR1c and co-receptor beta-Klotho (KLB), sequence (P11362 22-822, chain 1 of 2): as the sequence (P11362 22-822, chain 1 of 2) above
cell surface receptor composed of the tyrosine kinase receptor FGFR1c and co-receptor beta-Klotho (KLB), sequence (Q86Z14 whole entry, chain 2 of 2): as the sequence (Q86Z14 whole entry, chain 2 of 2) above

Binder	Mean E max, Luciferase gene reporter assay [1]	Mean E max, Luciferase reporter gene assay [2]	Mean EC50, Luciferase reporter gene assay [2]	koff (human beta-Klotho (KLB) [3])	Mean E max, Luciferase reporter gene assay [4]	Mean EC50, Luciferase reporter gene assay [4]	koff (human beta-Klotho (KLB) [5])	Mean EC50, Luciferase gene reporter assay [1]
16H7 variant with light chain substitution D95S (antibody, human IgG4 S228P, lambda, V domains shown) VH: not shown VL: SYVLTQPPSVSVAPGQTARITCGGNNIGSESVHWYQQKPGQAPVLVVYDDSDRPSGIPERFSGSNSGNTATLTISRVEAGDEADYYCQVWDGNSSHVVFGGGTKLTVLG	37%	–	–	–	–	–	–	–
16H7 light chain variant G28A (antibody, human IgG4 S228P, lambda, V domains shown) VH: not shown VL: SYVLTQPPSVSVAPGQTARITCGGNNIASESVHWYQQKPGQAPVLVVYDDSDRPSGIPERFSGSNSGNTATLTISRVEAGDEADYYCQVWDGNSDHVVFGGGTKLTVLG	–	92%	0.123 nM	3.3e-05 s⁻¹	–	–	–	–
16H7 light chain variant E30C (antibody, V domains shown, copies: 2 + 2) VH: not shown VL: SYVLTQPPSVSVAPGQTARITCGGNNIGSCSVHWYQQKPGQAPVLVVYDDSDRPSGIPERFSGSNSGNTATLTISRVEAGDEADYYCQVWDGNSDHVVFGGGTKLTVLG	–	92%	0.114 nM	9.6e-05 s⁻¹	–	–	–	–
16H7 light chain variant V97M (antibody, IgG4, V domains shown, IgG4 backbone) VH: not shown VL: SYVLTQPPSVSVAPGQTARITCGGNNIGSESVHWYQQKPGQAPVLVVYDDSDRPSGIPERFSGSNSGNTATLTISRVEAGDEADYYCQVWDGNSDHMVFGGGTKLTVLG	–	–	–	–	103%	0.214 nM	3.3e-05 s⁻¹	–
16H7 light chain variant V98M (antibody, IgG4, V domains shown, IgG4 backbone) VH: not shown VL: SYVLTQPPSVSVAPGQTARITCGGNNIGSESVHWYQQKPGQAPVLVVYDDSDRPSGIPERFSGSNSGNTATLTISRVEAGDEADYYCQVWDGNSDHVMFGGGTKLTVLG	–	–	–	–	108%	0.114 nM	7.2e-05 s⁻¹	–
16H7 light chain variant E30I (antibody, human IgG4 S228P, lambda, V domains shown) VH: not shown VL: SYVLTQPPSVSVAPGQTARITCGGNNIGSISVHWYQQKPGQAPVLVVYDDSDRPSGIPERFSGSNSGNTATLTISRVEAGDEADYYCQVWDGNSDHVVFGGGTKLTVLG	–	108%	0.136 nM	7.3e-05 s⁻¹	–	–	–	–
16H7 light chain variant V98I (antibody, IgG4, V domains shown, IgG4 backbone) VH: not shown VL: SYVLTQPPSVSVAPGQTARITCGGNNIGSESVHWYQQKPGQAPVLVVYDDSDRPSGIPERFSGSNSGNTATLTISRVEAGDEADYYCQVWDGNSDHVIFGGGTKLTVLG	–	–	–	–	116%	0.105 nM	3.3e-05 s⁻¹	–
16H7 light chain variant V97T (antibody, IgG4, V domains shown, IgG4 backbone) VH: not shown VL: SYVLTQPPSVSVAPGQTARITCGGNNIGSESVHWYQQKPGQAPVLVVYDDSDRPSGIPERFSGSNSGNTATLTISRVEAGDEADYYCQVWDGNSDHTVFGGGTKLTVLG	–	–	–	–	99%	0.142 nM	0.0001 s⁻¹	–
16H7 light chain variant V98F (antibody, IgG4, V domains shown, IgG4 backbone) VH: not shown VL: SYVLTQPPSVSVAPGQTARITCGGNNIGSESVHWYQQKPGQAPVLVVYDDSDRPSGIPERFSGSNSGNTATLTISRVEAGDEADYYCQVWDGNSDHVFFGGGTKLTVLG	–	–	–	–	102%	0.161 nM	1.6e-05 s⁻¹	–
16H7 light chain variant V98N (antibody, IgG4, V domains shown, IgG4 backbone) VH: not shown VL: SYVLTQPPSVSVAPGQTARITCGGNNIGSESVHWYQQKPGQAPVLVVYDDSDRPSGIPERFSGSNSGNTATLTISRVEAGDEADYYCQVWDGNSDHVNFGGGTKLTVLG	–	–	–	–	112%	0.111 nM	2.1e-05 s⁻¹	–
16H7 light chain variant V97L (antibody, IgG4, V domains shown, IgG4 backbone) VH: not shown VL: SYVLTQPPSVSVAPGQTARITCGGNNIGSESVHWYQQKPGQAPVLVVYDDSDRPSGIPERFSGSNSGNTATLTISRVEAGDEADYYCQVWDGNSDHLVFGGGTKLTVLG	–	–	–	–	110%	0.129 nM	5.9e-05 s⁻¹	–
16H7 light chain variant V98R (antibody, IgG4, V domains shown, IgG4 backbone) VH: not shown VL: SYVLTQPPSVSVAPGQTARITCGGNNIGSESVHWYQQKPGQAPVLVVYDDSDRPSGIPERFSGSNSGNTATLTISRVEAGDEADYYCQVWDGNSDHVRFGGGTKLTVLG	–	–	–	–	99%	0.099 nM	0.00011 s⁻¹	–
16H7 light chain variant V98C (antibody, IgG4, V domains shown, IgG4 backbone) VH: not shown VL: SYVLTQPPSVSVAPGQTARITCGGNNIGSESVHWYQQKPGQAPVLVVYDDSDRPSGIPERFSGSNSGNTATLTISRVEAGDEADYYCQVWDGNSDHVCFGGGTKLTVLG	–	–	–	–	100%	0.105 nM	6.4e-05 s⁻¹	–
16H7 light chain variant E30F (antibody, V domains shown, copies: 2 + 2) VH: not shown VL: SYVLTQPPSVSVAPGQTARITCGGNNIGSFSVHWYQQKPGQAPVLVVYDDSDRPSGIPERFSGSNSGNTATLTISRVEAGDEADYYCQVWDGNSDHVVFGGGTKLTVLG	–	92%	0.107 nM	9.7e-05 s⁻¹	–	–	–	–
16H7 light chain variant E30A (antibody, V domains shown, copies: 2 + 2) VH: not shown VL: SYVLTQPPSVSVAPGQTARITCGGNNIGSASVHWYQQKPGQAPVLVVYDDSDRPSGIPERFSGSNSGNTATLTISRVEAGDEADYYCQVWDGNSDHVVFGGGTKLTVLG	–	103%	0.146 nM	5.1e-05 s⁻¹	–	–	–	–
16H7 light chain variant E30D (antibody, human IgG4 S228P, lambda, V domains shown) VH: not shown VL: SYVLTQPPSVSVAPGQTARITCGGNNIGSDSVHWYQQKPGQAPVLVVYDDSDRPSGIPERFSGSNSGNTATLTISRVEAGDEADYYCQVWDGNSDHVVFGGGTKLTVLG	–	96%	0.118 nM	3.6e-05 s⁻¹	–	–	–	–
16H7 light chain variant V97I (antibody, IgG4, V domains shown, IgG4 backbone) VH: not shown VL: SYVLTQPPSVSVAPGQTARITCGGNNIGSESVHWYQQKPGQAPVLVVYDDSDRPSGIPERFSGSNSGNTATLTISRVEAGDEADYYCQVWDGNSDHIVFGGGTKLTVLG	–	–	–	–	110%	0.12 nM	1.7e-05 s⁻¹	–
16H7 variant with light chain substitution S94K (antibody, human IgG4 S228P, lambda, V domains shown) VH: not shown VL: SYVLTQPPSVSVAPGQTARITCGGNNIGSESVHWYQQKPGQAPVLVVYDDSDRPSGIPERFSGSNSGNTATLTISRVEAGDEADYYCQVWDGNKDHVVFGGGTKLTVLG	104%	–	–	–	–	–	–	0.185 nM
16H7 light chain variant E30G (antibody, human IgG4 S228P, lambda, V domains shown) VH: not shown VL: SYVLTQPPSVSVAPGQTARITCGGNNIGSGSVHWYQQKPGQAPVLVVYDDSDRPSGIPERFSGSNSGNTATLTISRVEAGDEADYYCQVWDGNSDHVVFGGGTKLTVLG	–	94%	0.138 nM	4.8e-05 s⁻¹	–	–	–	–
16H7 light chain variant V98P (antibody, IgG4, V domains shown, IgG4 backbone) VH: not shown VL: SYVLTQPPSVSVAPGQTARITCGGNNIGSESVHWYQQKPGQAPVLVVYDDSDRPSGIPERFSGSNSGNTATLTISRVEAGDEADYYCQVWDGNSDHVPFGGGTKLTVLG	–	–	–	–	89%	0.131 nM	7.3e-05 s⁻¹	–
16H7 light chain variant V97N (antibody, IgG4, V domains shown, IgG4 backbone) VH: not shown VL: SYVLTQPPSVSVAPGQTARITCGGNNIGSESVHWYQQKPGQAPVLVVYDDSDRPSGIPERFSGSNSGNTATLTISRVEAGDEADYYCQVWDGNSDHNVFGGGTKLTVLG	–	–	–	–	95%	0.206 nM	0.00033 s⁻¹	–
16H7 light chain variant V98S (antibody, IgG4, V domains shown, IgG4 backbone) VH: not shown VL: SYVLTQPPSVSVAPGQTARITCGGNNIGSESVHWYQQKPGQAPVLVVYDDSDRPSGIPERFSGSNSGNTATLTISRVEAGDEADYYCQVWDGNSDHVSFGGGTKLTVLG	–	–	–	–	107%	0.094 nM	3.9e-05 s⁻¹	–
16H7 light chain variant V98Q (antibody, IgG4, V domains shown, IgG4 backbone) VH: not shown VL: SYVLTQPPSVSVAPGQTARITCGGNNIGSESVHWYQQKPGQAPVLVVYDDSDRPSGIPERFSGSNSGNTATLTISRVEAGDEADYYCQVWDGNSDHVQFGGGTKLTVLG	–	–	–	–	111%	0.121 nM	3.7e-05 s⁻¹	–
